Data set [1] deals with Mos1 transposase R48Q/Q100R (with T216A), DNA binding deficient mutant (Drosophila mauritiana). Kind of data set: SEC.
Data set [2] concerns the target Mos1 transposase R48Q/Q100R D284A (with T216A), DNA binding and catalytically inactive mutant (Drosophila mauritiana). Description: SEC.
Data set [3] deals with Mos1 transposase D284A (with T216A), catalytically inactive mutant (Drosophila mauritiana). Kind of data set: SEC. For orientation: In gel filtration, larger molecules generally elute earlier.
The target in data set [4] is T1, Mos1 transposase R48Q/Q100R (Drosophila mauritiana (mariner Mos1), UniProt Q7JQ07 1-345, R48Q;Q100R;T216A).
T1 sequence: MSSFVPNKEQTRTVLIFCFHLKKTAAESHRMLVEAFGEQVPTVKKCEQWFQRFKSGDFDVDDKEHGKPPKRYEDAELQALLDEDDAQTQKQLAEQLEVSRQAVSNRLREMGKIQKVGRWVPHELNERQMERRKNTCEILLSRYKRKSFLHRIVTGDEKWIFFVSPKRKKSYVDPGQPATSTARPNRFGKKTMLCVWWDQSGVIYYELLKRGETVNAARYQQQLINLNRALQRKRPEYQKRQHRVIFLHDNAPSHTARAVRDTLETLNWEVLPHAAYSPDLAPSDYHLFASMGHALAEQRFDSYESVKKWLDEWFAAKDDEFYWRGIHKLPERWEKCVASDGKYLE
Kind of data set: EMSA. Background: In EMSA bound probe runs differently from free probe, usually more slowly.

The target of data set [5] is T2, Mos1 transposase T216A (Drosophila mauritiana (mariner Mos1), UniProt Q7JQ07 1-345, T216A).
T2 sequence: T1 sequence with Q48R, R100Q
Description: X-ray crystallography.

The target in data set [6] is T2, Mos1 transposase T216A. Kind of data set: X-ray crystallography. This is another data set of the same source.

Residue numbers refer to the chain shown, from its start. Like-named read-outs stand apart in the source and are kept apart here.

Six molecules from paper PMC3977044 can be followed below.

“Mos1 transposase R48Q/Q100R (with T216A), DNA binding deficient mutant (enzyme)” displayed a stoichiometry N in data set [1] of 2.

Consider “Mos1 transposase R48Q/Q100R D284A (with T216A), DNA binding and catalytically inactive mutant (enzyme)”, for which the stoichiometry N in data set [2] amounted to 2.

In turn, “Mos1 transposase D284A (with T216A), catalytically inactive mutant (enzyme)” displayed a stoichiometry N in data set [3] of 2.

B1: 100 bp IRR plus flank NTS cleavage substrate (dsDNA)
DNA 1: ACGGGCTCCAGTCGGTGAATATAGAAACTATCAGGTGTACAAGTATGAAATGTCGTTTTTTTTAAATCAAAAAACACGTTAAATTTTGTGGAAAAAGAAA
DNA 2: TTTCTTTTTCCACAAAATTTAACGTGTTTTTTGATTTAAAAAAAACGACATTTCATACTTGTACACCTGATAGTTTCTATATTCACCGACTGGAGCCCGT
Regarding B1, the binding result in data set [4] is reported as “no binding”.

B2: IRR duplex with 5-iodo-dU at T16 (dsDNA)
DNA 1: AAACGACATTTCATACTTGTACACCTGA
DNA 2: GGTGTACAAGTATGAAATGTCGTTT
modifications: 5-iodo-dU replacing T16 (NTS nucleotide 13 by structure numbering); 5' phosphate on NTS presumed
For the molecule B2, the binding result with Mos1 transposase T216A [5] is listed as “binds”.

B3: pre-cleaved IRR duplex (28 nt TS / 25 nt NTS) (dsDNA)
DNA 1: AAACGACATTTCATACTTGTACACCTGA
DNA 2: GGTGTACAAGTATGAAATGTCGTTT
modifications: 5' phosphate on NTS
As to B3, in the data set with Mos1 transposase T216A [6], the binding result was “binds”.

The stoichiometry N is the number of molecules, sites or subunits per partner or assembly.
